According to patent publication US20250051465A1:

Experiments:
[1] = biological target: extracellular domain of human LEPR, GPI-anchored on HEK293 cells (HEK293/hLEPR-GPI) (human); test: FACS, HEK293/hLEPR-GPI
[2] = biological target: full length human LEPR on cells (human) (UniProt P48357); test: FACS, HEK293/Stat3-luc/hLEPR-FL
[3] = biological target: extracellular domain of human LEPR, GPI-anchored on HEK293 cells (HEK293/hLEPR-GPI) (human); test: FACS, HEK293/hLEPR-GPI, no added Leptin
[4] = biological target: extracellular domain of human LEPR, GPI-anchored on HEK293 cells (HEK293/hLEPR-GPI) (human); test: FACS, HEK293/hLEPR-GPI, 1 µM Leptin
[5] = biological target: extracellular domain of human LEPR, GPI-anchored on HEK293 cells (HEK293/hLEPR-GPI) (human); test: FACS, HEK293/hLEPR-GPI, 70 nM Ab
[6] = biological target: full length human LEPR on cells (human) (UniProt P48357); test: FACS, HEK293/Stat3-luc/hLEPR-FL, 70 nM Ab
[7] = biological target: Macaca fascicularis LEPR extracellular domain expressed with a C-terminal myc-myc-hexahistidine tag (mfLEPR.mmh) (Macaca fascicularis); test: SPR, captured mAb, 25C
Sequence of Macaca fascicularis LEPR extracellular domain expressed with a C-terminal myc-myc-hexahistidine tag (mfLEPR.mmh) (Macaca fascicularis) (Q9MYL0 other isoform, or with tags, fused parts or gaps): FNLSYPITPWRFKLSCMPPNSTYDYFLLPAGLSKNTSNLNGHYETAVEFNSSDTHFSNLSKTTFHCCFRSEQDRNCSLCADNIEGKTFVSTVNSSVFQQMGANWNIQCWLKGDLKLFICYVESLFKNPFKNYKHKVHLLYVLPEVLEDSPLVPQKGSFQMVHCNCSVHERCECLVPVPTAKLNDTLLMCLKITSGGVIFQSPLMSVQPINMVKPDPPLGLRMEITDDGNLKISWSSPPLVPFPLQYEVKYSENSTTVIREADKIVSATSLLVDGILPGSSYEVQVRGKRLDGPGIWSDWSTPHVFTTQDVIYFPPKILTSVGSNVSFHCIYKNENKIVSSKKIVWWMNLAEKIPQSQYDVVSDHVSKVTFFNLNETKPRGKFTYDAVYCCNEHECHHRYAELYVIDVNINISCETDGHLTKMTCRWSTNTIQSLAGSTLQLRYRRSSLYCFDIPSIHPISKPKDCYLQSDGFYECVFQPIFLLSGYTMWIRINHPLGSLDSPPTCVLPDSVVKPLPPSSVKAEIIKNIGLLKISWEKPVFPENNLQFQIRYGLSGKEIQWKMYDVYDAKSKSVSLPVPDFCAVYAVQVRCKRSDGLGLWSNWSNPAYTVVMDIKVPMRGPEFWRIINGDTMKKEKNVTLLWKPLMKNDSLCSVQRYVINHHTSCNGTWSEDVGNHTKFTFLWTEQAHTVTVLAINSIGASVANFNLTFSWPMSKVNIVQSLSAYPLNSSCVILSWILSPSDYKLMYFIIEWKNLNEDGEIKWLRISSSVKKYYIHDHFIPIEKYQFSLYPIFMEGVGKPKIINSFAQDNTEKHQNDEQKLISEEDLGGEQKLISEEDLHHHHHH

Sequence of full length human LEPR on cells (human) (P48357 22-1165): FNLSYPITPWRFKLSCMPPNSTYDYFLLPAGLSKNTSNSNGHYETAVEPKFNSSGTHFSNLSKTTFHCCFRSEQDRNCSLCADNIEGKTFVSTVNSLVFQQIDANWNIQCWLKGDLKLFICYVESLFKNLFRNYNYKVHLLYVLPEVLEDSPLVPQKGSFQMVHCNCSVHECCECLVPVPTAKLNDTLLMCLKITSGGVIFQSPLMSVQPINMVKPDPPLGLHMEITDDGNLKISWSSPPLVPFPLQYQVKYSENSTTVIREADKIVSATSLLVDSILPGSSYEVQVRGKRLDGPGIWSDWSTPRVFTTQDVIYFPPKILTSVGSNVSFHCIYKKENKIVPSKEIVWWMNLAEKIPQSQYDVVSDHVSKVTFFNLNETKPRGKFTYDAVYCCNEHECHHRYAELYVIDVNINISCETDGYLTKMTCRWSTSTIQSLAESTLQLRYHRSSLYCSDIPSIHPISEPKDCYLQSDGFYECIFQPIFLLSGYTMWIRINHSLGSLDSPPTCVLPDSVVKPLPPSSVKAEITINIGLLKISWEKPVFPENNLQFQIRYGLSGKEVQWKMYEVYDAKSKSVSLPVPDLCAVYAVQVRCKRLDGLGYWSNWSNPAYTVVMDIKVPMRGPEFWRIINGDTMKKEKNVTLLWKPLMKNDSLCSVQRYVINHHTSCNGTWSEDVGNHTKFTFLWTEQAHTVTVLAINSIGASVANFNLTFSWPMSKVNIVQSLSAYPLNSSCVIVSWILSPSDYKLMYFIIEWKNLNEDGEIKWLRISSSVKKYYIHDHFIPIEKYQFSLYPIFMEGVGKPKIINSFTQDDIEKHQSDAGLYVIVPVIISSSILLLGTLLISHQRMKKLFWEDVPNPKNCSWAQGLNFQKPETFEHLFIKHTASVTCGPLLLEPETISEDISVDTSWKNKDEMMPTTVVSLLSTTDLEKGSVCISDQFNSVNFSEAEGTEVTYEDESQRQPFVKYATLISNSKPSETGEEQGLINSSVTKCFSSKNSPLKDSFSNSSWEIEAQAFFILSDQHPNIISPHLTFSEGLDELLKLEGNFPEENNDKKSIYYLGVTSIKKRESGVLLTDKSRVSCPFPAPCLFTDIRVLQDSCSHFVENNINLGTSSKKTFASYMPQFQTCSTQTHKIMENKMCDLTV

Row | Binding Ratio (fold over unstained) [1] | Binding Ratio (fold over unstained) [2] | Binding Ratio (fold over unstained) [3] | Binding Ratio (fold over unstained) [4] | Binding Ratio (fold over unstained) [5] | Binding Ratio (fold over unstained) [6] | 100 nM mfLEP.MMH Bound (RU) [7] | Substance
1 | 1 | 1 | 3 | 3 | – | – | – | Alexa Fluor-647 conjugated secondary antibody (Jackson ImmunoResearch Laboratories Inc., #109-547-003)
2 | – | – | – | – | 2 | 2 | 0 RU | Isotype Control mAb (antibody)
